Measurements published in patent US20110059142A1, “ENCAPSULATION OF BIOLOGICALLY ACTIVE AGENTS” (priority 2008, published 2011).

Experiment: In vivo evaluation of HIP-PBCA nanoparticle delivery of dalargin to the brain, intravenous
Settings: mouse, i.v., 20 minutes following injection, LC-MS-MS
Method: The ability of the HIP-PBCA nanoparticles to deliver their peptide load to the brain was determined in vivo in the mouse model. HIP-PBCA nanoparticles containing encapsulated dalargin using the HIP process were compared to HIP-PBCA nanoparticles that had had the peptide adsorbed onto the particle surface as reported by Kreuter et al. The nanoparticles were prepared for brain delivery via the intravenous route by coating their surface with polysorbate 80 surfactant. Briefly, the nanoparticles were incubated in PBS containing 1% w/v surfactant for 30 minutes prior to injection. The surfactant has been reported in the literature to indirectly target the nanoparticles to the brain by promoting adsorption of serum apolipoproteins onto the nanoparticle surface. This allows the particles to bind to the apolipoprotein receptor on the blood brain barrier and transcytose to reach the brain. The following formulations were compared: • 1. HIP-PBCA nanoparticles alone (5:1 HIP content) • 2. HIP-PBCA nanoparticles alone (10:1 HIP content) • 3. Dalargin in solution (2.0 mg/kg) • 4. HIP-PBCA nanoparticles with dalargin adsorbed onto the surface (2.0 mg/kg total dose used in formulation) • 5. […]
The mice were sacrificed at 20 minutes following injection, and the brains and blood samples collected and analysed for the presence of peptide by LC-MS-MS. […]

Substance: dalargin (YAGFLR; Humanised sequence of mus musculus and homo sapiens) [9: YAGFLR]
- Dalargin levels in the brain (detectability): detectable in the brain only when encapsulated within the particles using the HIP process
